PMC10216065 (Biomolecules, 2023)

B1: Mycobacterium tuberculosis SufU (Rv1465), tag state not told (natural protein)
chain: GSHMVTLRLEQIYQDVILDHYKHPQHRGLREPFGAQVYHVNPICGDEVTLRVALSEDGTRVTDVSYDGQGCSISQAATSVLTEQVIGQRVPRALNIVDAFTEMVSSRGTVPGDEDVLGDGVAFAGVAKYPARVKCALLGWMAFKDALAQASEAFEEVTDERNQRTG
B2: Mycobacterium tuberculosis SufS (Rv1464) (enzyme)
chain: GMTASVNSLDLAAIRADFPILKRIMRGGNPLAYLDSGATSQRPLQVLDAEREFLTASNGAVHRGAHQLMEEATDAYEQGRADIALFVGADTDELVFTKNATEALNLVSYVLGDSRFERAVGPGDVIVTTELEHHANLIPWQELARRTGATLRWYGVTDDGRIDLDSLYLDDRVKVVAFTHHSNVTGVLTPVSELVSRAHQSGALTVLDACQSVPHQPVDLHELGVDFAAFSGHKMLGPNGIGVLYGRRELLAQMPPFLTGGSMIETVTMEGATYAPAPQRFEAGTPMTSQVVGLAAAARYLGAIGMAAVEAHERELVAAAIEGLSGIDGVRILGPTSMRDRGSPVAFVVEGVHAHDVGQVLDDGGVAVRVGHHCALPLHRRFGLAATARASFAVYNTADEVDRLVAGVRRSRHFFGRA

Legend:
[1] = target: B2; assay: crystal structure; conditions: both partners purified
[2] = target: the molecule itself; assay: SEC-MALS

## B1
[1]
  binding result: binds

## B2
[2]
  stoichiometry N: 2
